Reference: publication PMC8646660 (EMBO Molecular Medicine, 2021)

B1: scFD20 (single-chain variable fragment of FD20) (scFv, V domains shown)
VH: QVQLQQSGAEVKKPGSSVKVSCKASGGTFSSYAFSWVRQAPGQGLEWMGRIIPILGIANYAQKFQGRVTITADISTSTAYMALSSLRSEDTAVYYCAKVEVNIGMDDYYYYYGMDVWGQGTTVTVSS
VL: not shown
notes: also called scFv of FD20; scFv FD20; source: E. coli MC1061, periplasmic release, purified (Ni-NTA)
B2: FD20 (IgG format) (antibody, V domains shown)
VH: B1 VH
VL: not shown

Key:
[1] = molecular target: T1, SARS-CoV-2 S receptor-binding domain (RBD), biotinylated (SARS-CoV-2, UniProt P0DTC2, biotin on the Avi tag (enzymatic, BirA)); experiment: BLI; details: both partners purified
T1 construct: also called wild-type RBD; WT

[2] = molecular target: T1, SARS-CoV-2 S receptor-binding domain …; experiment: cell-based or functional assay

Row | Binder | Kd [1] | neutralisation of SARS-CoV-2 pseudovirus particles (pp), IC50 [2] | microneutralisation of authentic SARS-CoV-2 hCoV-19/China/CAS-B001/2020, IC50 [2]
1 | B1 | 5.6 nM | 117 nM | 
2 | B2 |  |  | 5.2 nM
